Experimental data published in patent US20200392230A1 (QLB BIOTHERAPEUTICS, published 2020).

T1: CD20 (UniProt P11836 1-297, limits assumed)
T1 construct: whole, on cells; also called CD20 on Raji cells; CD20 on Daudi cells
T1 sequence (looked up): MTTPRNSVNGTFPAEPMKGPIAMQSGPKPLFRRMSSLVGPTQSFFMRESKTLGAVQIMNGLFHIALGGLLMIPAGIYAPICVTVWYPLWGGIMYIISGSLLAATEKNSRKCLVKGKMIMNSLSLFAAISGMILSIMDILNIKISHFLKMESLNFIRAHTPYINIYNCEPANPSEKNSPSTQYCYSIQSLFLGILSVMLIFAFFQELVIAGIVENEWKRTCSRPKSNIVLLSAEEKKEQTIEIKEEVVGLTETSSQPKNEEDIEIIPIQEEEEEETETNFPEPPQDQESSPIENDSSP


Experiments:
[1] = molecular target: T2, CD3 (UniProt P07766 23-207); assay: FACS, cell surface binding on Jurkat cells (CD3+), fluorescent secondary antibody, MFI
T2 construct: whole, on cells; In the functional assays CD3 stood on engineered effector cells or on T cells of human PBMCs; also called CD3 on Jurkat cells; TCR/CD3 complex
Protocol: (§1) After washing in phosphate buffered saline (PBS), fluorescence conjugated secondary antibodies were added to the cell mixture. The stained cells were analyzed in an LSR II FACS machine (BD Biosciences). Mean fluorescence intensity (MFI) was used to indicate the binding strength of the tested antibodies.

[2] = molecular target: T1, CD20; assay: FACS, cell surface binding on Raji cells
Protocol: as §1

T2 sequence (P07766 23-207): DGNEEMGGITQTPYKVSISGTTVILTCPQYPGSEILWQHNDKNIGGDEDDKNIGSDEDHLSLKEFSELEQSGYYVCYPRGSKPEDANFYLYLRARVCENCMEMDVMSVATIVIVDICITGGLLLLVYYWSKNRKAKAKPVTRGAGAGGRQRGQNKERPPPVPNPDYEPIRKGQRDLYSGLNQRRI

Row | EC50 [1] [nM] | binding result [2] | Binder
1 | 98.2 |  | QLB1005-0002 (bispecific antibody, human IgG1, scFv-Fc format with Knob-in-Hole and L234A, L235A (LALA) mutations in a human IgG1 Fc; The text also prints the name as QLB1005-02000; also called QLB1005-02000; QLB-1005-02000) chain 1: EVQLVESGGGLVQPGGSLKLSCAASGFTFNTYAMNWVRQASGKGLEWVARIRSKYNNYATYYADSVKDRFTISRDDSKNTLYLQMNSLKTEDTAVYYCVRHGNFGNSYVSWFAYWGQGTLVTVSSGGGGSGGGGSGGGGSQAVVTQEPSLTVSPGGTVTLTCRSSTGAVTTSNYANWVQQKPGQAPRGLIGGTNKRAPGVPARFSGSLLGDKAALTLSGAQPEDEAEYYCALWYSNLWVFGTGTKVTVLGGGGSGGGGSGGGGSPKSCDKTHTCPPCPAPEAAGGPSVFLFPPKPKDTLMISRTPEVTCVVVDVSHEDPEVKFNWYVDGVEVHNAKTKPREEQYNSTYRVVSVLTVLHQDWLNGKEYKCKVSNKALGAPIEKTISKAKGQPREPQVCTLPPSRDELTKNQVSLSCAVKGFYPSDIAVEWESNGQPENNYKTTPPVLDSDGSFFLVSKLTVDKSRWQQGNVFSCSVMHEALHNHYTQKSLSLSPGK chain 2: not shown
2 |  | binds | QLB1005-0003 (bispecific antibody, NCI/NIH CH1-CK stabilized Fab format; the CH1 and CK domains form a heterodimer via a disulphide bond; also called anti-CD3×CD20 BsAb; Fab format (VH-VL-CH1/VH-VL-CK)) chain 1: EVQLVESGGGLVQPGGSLKLSCAASGFTFNTYAMNWVRQASGKGLEWVARIRSKYNNYATYYADSVKDRFTISRDDSKNTLYLQMNSLKTEDTAVYYCVRHGNFGNSYVSWFAYWGQGTLVTVSSGGGGSGGGGSGGGGSQAVVTQEPSLTVSPGGTVTLTCRSSTGAVTTSNYANWVQQKPGQAPRGLIGGTNKRAPGVPARFSGSLLGDKAALTLSGAQPEDEAEYYCALWYSNLWVFGTGTKVTVLGGGGSASTKGPSVFPLAPSSKSTSGGTAALGCLVKDYFPEPVTVSWNSGALTSGVHTFPAVLQSSGLYELVSVVTVPSSSLGTQTYICNVNHKPSNTKVDKKVEPKSC chain 2: QVQLVQSGAEVKKPGASVKVSCKASGYTFTSYNMHWVRQAPGQGLEWIGAIYPGNGDTSYNQKFKGKATLTADKSTSTAYMELSSLRSEDTAVYYCARSTYYGGDWYFNVWGQGTLVTVSSGGGGSGGGGSGGGGSQIVLTQSPATLSLSPGERATLSCRASSSVSYIHWFQQKPGQAPRPWIYATSNLASGVPARFSGSGSGTDYTLTISSLEPEDFAVYYCQQWTSNPPTFGQGTKVEIKGGGGSRTVAAPSVFIFPPSDEQLKSGTASVVCLLNNFYPREAKVQWKVDNALQSGNSQESVTEQDSKDSTYSLLSSLTLSKADYEKHKVYACEVTHQGLSSPVTKSFNRGEC
3 |  | binds | QLB1005-0001 (bispecific antibody, NCI/NIH CH1-CK stabilized Fab format; the CH1 and CK domains form a heterodimer via a disulphide bond; also called anti-CD3×CD20 BsAb; Fab format (VL-VH-CH1/VL-VH-CK)) chain 1: QAVVTQEPSLTVSPGGTVTLTCRSSTGAVTTSNYANWVQQKPGQAPRGLIGGTNKRAPGVPARFSGSLLGDKAALTLSGAQPEDEAEYYCALWYSNLWVFGTGTKVTVLGGGGSGGGGSGGGGSEVQLVESGGGLVQPGGSLKLSCAASGFTFNTYAMNWVRQASGKGLEWVARIRSKYNNYATYYADSVKDRFTISRDDSKNTLYLQMNSLKTEDTAVYYCVRHGNFGNSYVSWFAYWGQGTLVTVSSGGGGSASTKGPSVFPLAPSSKSTSGGTAALGCLVKDYFPEPVTVSWNSGALTSGVHTFPAVLQSSGLYELVSVVTVPSSSLGTQTYICNVNHKPSNTKVDKKVEPKSC chain 2: QIVLTQSPATLSLSPGERATLSCRASSSVSYIHWFQQKPGQAPRPWIYATSNLASGVPARFSGSGSGTDYTLTISSLEPEDFAVYYCQQWTSNPPTFGQGTKVEIKGGGGSGGGGSGGGGSQVQLVQSGAEVKKPGASVKVSCKASGYTFTSYNMHWVRQAPGQGLEWIGAIYPGNGDTSYNQKFKGKATLTADKSTSTAYMELSSLRSEDTAVYYCARSTYYGGDWYFNVWGQGTLVTVSSGGGGSRTVAAPSVFIFPPSDEQLKSGTASVVCLLNNFYPREAKVQWKVDNALQSGNSQESVTEQDSKDSTYSLLSSLTLSKADYEKHKVYACEVTHQGLSSPVTKSFNRGEC
